The record followed here is paper PMC4519180 (2015).

No end group written: not given here. *: point of attachment. 6FAM = O=C1OC2(c3ccc(O)cc3Oc3cc(O)ccc32)c2cc(C(=O)*)ccc21

The experiment has as its target recombinant purified ABL SH3 domain alone (human).

Sequence of recombinant purified ABL SH3 domain alone (human) (chain, as listed by the source): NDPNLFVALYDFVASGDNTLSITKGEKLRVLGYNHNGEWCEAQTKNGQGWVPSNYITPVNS

With 6FAM-APTYPPPLPP [p40 probe peptide, labeled with 6-carboxyfluorescein], the Kd was determined as 400 nM.
With 6FAM-APTMPPPLPP [3BP-1 probe peptide, labeled with 6-carboxyfluorescein] the figure was 34000 nM.
With APSYSPPPPP [unlabeled p41 peptide] the figure was 1500 nM.

As a reminder, the Kd is the free concentration of one partner at which half of the binding sites on the other are occupied at equilibrium, for simple one-to-one binding.
